According to the supplement of paper PMC9170038:

How the values were obtained:
MS2 coat protein [1] = experiment: apparent KD of MS2 coat protein, switch ON state; designed switch direction (-1 OFF switch, 1 ON switch): 1; higher = weaker reporter binding; details: FMN input: 0 or 200 uM; Eterna round: R93 (includes R88 designs)
How it was run: (§1)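 Apparent KD per design is the median of normalised cluster binding-curve fits. Designed RNA switches transcribed on-chip from Illumina sequencing clusters were titrated with SNAP-549-labelled MS2 coat protein in twofold steps from 0.7 or 1.5 nM to 3 µM, with 0.8–1.5 h down to 10–20 min per step. Buffer: 100 mM Tris-HCl pH 7.5, 80 mM KCl, 4 mM MgCl2, without or with constant ligand.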

MS2 coat protein [2] = experiment: apparent KD of MS2 coat protein, switch OFF state (with FMN for OFF switches, without FMN for ON switches); designed switch direction (-1 OFF switch, 1 ON switch): 1; higher = weaker reporter binding; details: FMN input: 0 or 200 uM; Eterna round: R93 (includes R88 designs)
How it was run: as §1

Sequence | apparent KD of MS2 coat protein (MS2 coat protein [1]) [nM] | apparent KD of MS2 coat protein (MS2 coat protein [2]) [nM]
AUAAUAAAAACACAGGAUAUCCAAAAGAAAACAUGAGGAUCACCCAUGUAAAGAAAAUAAAAAUGGGAGAAGGGUGAAAUAAAUA [Mat - Same State 2 - JL mod - D34] | 37.4 | 42.9
AUAUAAAUAAGCUAGGAUAUACUAAAGUAAACAUGAGGAUCACCCAUGUGAAGAAAGAAACUCAUGUAGAAGGAGCAUAUAUAUA [viburnum 3] | 45.6 | 185
AUAUAUAUAAGGUAGGAUAUCCAAAAGUAAACAUGAGGAUCACCCAUGUAAAGAAAGAAACAAUGGGAGAAGGACCAUAUAUAUA [77%, More Tesla, 3] | 9.5 | 24
AUGAAUAGCCUCGAGGAUAUCCAGUCAUGCACAUGAGGAUCACCCAUGUAAGAGAGAGUAUAAUGGGAGAAGGCGAGUUCUCGGU [JR_SS002_Sub1705] | 50.5 | 72.2
AUGGUCAAGUGUGAGGAUAUCCAGGCUCCCACAUGAGGAUCACCCAUGUCUUAAAGGGCGUAAAGGGAGAAGGUACGAACGCCAC [Diatenat] | 35.6 | 46.8
AUGUAUAGCCUCGAGGAUAUCCUGUCAUGCACAUGAGGAUCACCCAUGUAAGAGAGAGUUUAAUGGGAGAAGGCGAGUUCUCGGU [JR_SS002_Sub1706] | 33.4 | 66.6
CACAGAGUGGCGUAGGAUAUGUACAUGAGUACAUGAGGAUCACCCAUGUGGGCGUGAAAUUACGAGCAGAAGGGCGUCGCCUGUG [Edradi] | 24.4 | 135
CAGCGCUGUCGAGAGGAUAUGCGGUGAAGGACAUGAGGAUCACCCAUGUAAGCGAUAGUAUUACGGUAGAAGGCUCUACAGCUGC [Isdianbia] | 41.8 | 114
CCCAUACAUGAGGAUCACCCAUGUUUUAUUAACAGAGGAUAUAUAGGUGAAACAAACAACAUAGAAGGCUGCCCAA [Default title] | 34.2 | 53.2
CGGAGACAUGAGGAUCACCCAUGUGAGAAGAGGCGAGGAUAUCGAAAGAAAGAAGAGAAACGAGAAGGCGCGAGGU [salish99-SS1-071] | 24.2 | 34.5
CGGAGACAUGAGGAUCACCCAUGUGAGAAGAGGCGAGGAUAUCGAAAGAAAGAAGAGAAACGAGAAGGCGCGAGUU [salish99-SS1-070] | 21.5 | 34.5
CGGCUACAUGAGGAUCACCCAUGUCAGCCGAGGGCAGGAUAUGCGGUUCAUUCUCAAGCAGCAGAAGGGUCAAAAG [Onmabiat] | 12.8 | 8.83
CUGAGGAAGAGAGAGGAUAUCCAAAGGAAAACAUGAGGAUCACCCAUGUAAAAGGUAGGAAAUUGGGAGAAGGCUCAAGAGAGAG [salish99-ss2-068] | 22.4 | 34.3
GAAAAACAUGAGGAUCACCCAUGUAGAAACAUGGGAGGAUAUACAAAGACGAAAGUCAAAGUAGAAGGCCUAAAAG [Mat - Same State 1 - Mod - D159] | 207 | 119
GAAAAACAUGAGGAUCACCCAUGUAGAAAUAUGGGAGGAUAUACAAAGACGAAAGUCAAAGUAGAAGGCUCAAAAG [Starry Same State 1.2 (mat747 round 1 mod)] | 28.3 | 164
GAAAAACAUGAGGAUCACCCAUGUAGAAAUAUGGGAGGAUAUACGAAGACGAAAGUCGAAGUAGAAGGCCUAAAAG [Mat - Same State 1 - Eli mod - D24] | 27 | 84.9

Sequence | apparent KD of MS2 coat protein (MS2 coat protein [1]) [nM] | apparent KD of MS2 coat protein (MS2 coat protein [2]) [nM]
GAAAAACAUGAGGAUCACCCAUGUGAAAAUAUGGGAGGAUAUACAAAGACGAAAGUCAAAGUAGAAGGCCUAAAAG [Mat - Same State 1 - Eli mod - D3] | 23.5 | 139
GAAAAACAUGAGGAUCACCCAUGUGAAAAUAUGGGAGGAUAUACGAAGUCGAAAGUCAAAGUAGAAGGCCUAAAAG [Garnet 32] | 43.6 | 155
GAAAAACAUGAGGAUCACCCAUGUGGAAAUAUGGAAGGAUAUACAAAGACGAGAGUCAAAGUAGAAGGUCUAAAAG [Mat - Same State 1 - Eli mod - D20] | 17.3 | 26.3
GACAAACAUGAGGAUCACCCAUGUAGAAAUAUGGGAGGAUAUACACAGACGAAAGUCAAAGUAGAAGGCCUACAAG [77%, Mat - Mod of Eli - With 3 more C's] | 25.9 | 103
GAGAGACAUGAGGAUCACCCAUGUAGGAUUAUGGGAGGAUAUACAAAGACGAGAGUCAGAGUAGAAGGCCUAGGAG [salish99-ss1-139] | 25.4 | 75.6
GAGGACAUAGUACAGGAUAUAUGAAUAGUUACAUGAGGAUCACCCAUGUGCAUUAAUAUGCGAACAUAGAAGGGUGGUAGUUAUC [Mat - Same state - Malcolm Mod - D128] | 119 | 64.4
GAGGACAUAGUAUAGGAUAUAUGAAUAGUUACAUGAGGAUCACCCAUGUGCAUUUAUAUGCGAACAUAGAAGGGUGGUAGUUAUC [SameState2 Malc#31] | 122 | 75.1
GAUAGACAUGAGGAUCACCCAUGUAGAAUUAUGGGAGGAUAUACAAAGACGAGAGUCAGAGUAGAAGGCCUAGGAA [salish99-ss1-156] | 24.5 | 64.6
GAUGACAUAGUACAGGAUAUAUGAAUAGUCACAUGAGGAUCACCCAUGUGCAUUUAUAUGCGCACAUAGAAGGGUGGUAGUGAUC [Mat - Same state - Malcolm Mod - D126] | 79.9 | 49.8
GCAGGGCCGUACUAGGAUAUGGGUGUAAAGACAUGAGGAUCACCCAUGUGAUGGCAAAACAAAGCUCAGAAGGAGUCGCGGCCCA [Cemavebi] | 20.7 | 129
GCGGUGCAGGUACAGGAUAUGUUGCUCGUAACAUGAGGAUCACCCAUGUACCUAUGAGAUUAAAUGCAGAAGGGUGCACACCACG [Oneratle] | 47.2 | 574
GGAAAACAUGAGGAUCACCCAUGUGAAAACGUGGGAGGAUAUGCAUGGAAACCAUACUGUGCAGAAGGCCCAUGUC [EteRNA is fun!] | 17.2 | 59.4
GGAAAUAAAAGAGAGGAUAUCCAAAGGAAAACAUGAGGAUCACCCAUGUAAAAGGAAGGAAACUGGGAGAAGGCUCAAAAUAAGG [salish99-ss2-010] | 18.7 | 32.2
GGAGCCGGCACUGAGGAUAUUCAUAUUAAAACAUGAGGAUCACCCAUGUAGGCCAGAAGGCCUUGGGAGAAGGCAGGUCGGCUCG [Arinin] | 16.5 | 363
GGGAAGAAGAGAGAGGAUAUCCAAAGGAAAACAUGAGGAUCACCCAUGUAAAAGGUAGGAAAUUGGGAGAAGGCUCAAAAGAGAG [salish99-ss2-034] | 20.6 | 40.8
GGGAGACAUGAGGAUCACCCAUGUGAGAAGAGGCGAGGAUAUCGAAAGAAAGAAGAGAAACGAGAAGGCGCGAGGC [salish99-SS1-063] | 37.5 | 53.6
